Data reported in paper PMC7452723, “How to measure and evaluate binding affinities”.

Columns and labels:
Puf4 RNA-binding domain [1] = target: T1, Puf4 RNA-binding domain (Saccharomyces cerevisiae, UniProt P25339 537-888); test: EMSA; 0 C; quadratic fit; 20 mM HEPES-Na or HEPES-K pH 7.4, 2 mM MgCl2, 100 mM KOAc, 2 mM DTT, 0.2% Tween 20, 5% glycerol, 0.1 mg/ml BSA; 25 or 0 C; native 20% gel at 4-6 C; settings: protein: recombinant; tags: C-terminal SNAP tag; N-terminal 6xHis removed by TEV; label: 5'-32P; single strand
T1 sequence: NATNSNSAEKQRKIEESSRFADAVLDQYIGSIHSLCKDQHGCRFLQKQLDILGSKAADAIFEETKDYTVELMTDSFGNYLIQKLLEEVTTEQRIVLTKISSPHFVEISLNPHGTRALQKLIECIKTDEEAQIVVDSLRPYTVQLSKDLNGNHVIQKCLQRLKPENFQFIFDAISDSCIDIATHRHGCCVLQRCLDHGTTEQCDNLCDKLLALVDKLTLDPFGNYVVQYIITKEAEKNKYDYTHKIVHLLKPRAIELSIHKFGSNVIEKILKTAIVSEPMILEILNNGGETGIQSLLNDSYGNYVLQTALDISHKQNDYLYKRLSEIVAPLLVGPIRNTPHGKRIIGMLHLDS

Puf4 RNA-binding domain [2] = target: T1, Puf4 RNA-binding domain; test: EMSA; 25 C; quadratic fit; 20 mM HEPES-Na or HEPES-K pH 7.4, 2 mM MgCl2, 100 mM KOAc, 2 mM DTT, 0.2% Tween 20, 5% glycerol, 0.1 mg/ml BSA; 25 or 0 C; native 20% gel at 4-6 C; settings: protein: recombinant; tags: C-terminal SNAP tag; N-terminal 6xHis removed by TEV; label: 5'-32P; single strand
Puf4 RNA-binding domain [3] = target: T1, Puf4 RNA-binding domain; test: EMSA; 0 C; hyperbolic fit, upper limit (<=); 20 mM HEPES-Na or HEPES-K pH 7.4, 2 mM MgCl2, 100 mM KOAc, 2 mM DTT, 0.2% Tween 20, 5% glycerol, 0.1 mg/ml BSA; 25 or 0 C; native 20% gel at 4-6 C; settings: protein: recombinant; tags: C-terminal SNAP tag; N-terminal 6xHis removed by TEV; label: 5'-32P; single strand
Puf4 RNA-binding domain [4] = target: T1, Puf4 RNA-binding domain; test: EMSA; 25 C; hyperbolic fit; active-fraction corrected; 20 mM HEPES-Na or HEPES-K pH 7.4, 2 mM MgCl2, 100 mM KOAc, 2 mM DTT, 0.2% Tween 20, 5% glycerol, 0.1 mg/ml BSA; 25 or 0 C; native 20% gel at 4-6 C; settings: protein: recombinant; tags: C-terminal SNAP tag; N-terminal 6xHis removed by TEV; label: 5'-32P; single strand
Puf4 RNA-binding domain [5] = target: T1, Puf4 RNA-binding domain; test: EMSA kinetics (koff/kon); 25 C; kon 1.04e8 M-1s-1, koff 0.014 s-1; 20 mM HEPES-Na or HEPES-K pH 7.4, 2 mM MgCl2, 100 mM KOAc, 2 mM DTT, 0.2% Tween 20, 5% glycerol, 0.1 mg/ml BSA; 25 or 0 C; native 20% gel at 4-6 C; settings: protein: recombinant; tags: C-terminal SNAP tag; N-terminal 6xHis removed by TEV; label: 5'-32P; single strand
Puf4 RNA-binding domain [6] = target: T1, Puf4 RNA-binding domain; test: EMSA kinetics (koff/kon); 0 C; kon 2.85e7 M-1s-1, koff 2.92e-5 s-1; 20 mM HEPES-Na or HEPES-K pH 7.4, 2 mM MgCl2, 100 mM KOAc, 2 mM DTT, 0.2% Tween 20, 5% glycerol, 0.1 mg/ml BSA; 25 or 0 C; native 20% gel at 4-6 C; settings: protein: recombinant; tags: C-terminal SNAP tag; N-terminal 6xHis removed by TEV; label: 5'-32P; single strand
Puf4 RNA-binding domain [7] = target: T1, Puf4 RNA-binding domain; test: EMSA; 25 C; direct measurement parallel to competition; corrected for 75% active protein; 20 mM HEPES-Na or HEPES-K pH 7.4, 2 mM MgCl2, 100 mM KOAc, 2 mM DTT, 0.2% Tween 20, 5% glycerol, 0.1 mg/ml BSA; 25 or 0 C; native 20% gel at 4-6 C; settings: protein: recombinant; tags: C-terminal SNAP tag; N-terminal 6xHis removed by TEV; label: 5'-32P; single strand
Puf4 RNA-binding domain [8] = target: T1, Puf4 RNA-binding domain; test: competition EMSA; 25 C; three-fold lower Puf4; 20 mM HEPES-Na or HEPES-K pH 7.4, 2 mM MgCl2, 100 mM KOAc, 2 mM DTT, 0.2% Tween 20, 5% glycerol, 0.1 mg/ml BSA; 25 or 0 C; native 20% gel at 4-6 C; settings: protein: recombinant; tags: C-terminal SNAP tag; N-terminal 6xHis removed by TEV; label: none; single strand
Puf4 RNA-binding domain [9] = target: T1, Puf4 RNA-binding domain; test: competition EMSA; 25 C; vs labeled Puf4_HO, 0.45 nM active Puf4; 190-210 nM across 10-110 min; 230 nM with upper limit of labeled RNA; 20 mM HEPES-Na or HEPES-K pH 7.4, 2 mM MgCl2, 100 mM KOAc, 2 mM DTT, 0.2% Tween 20, 5% glycerol, 0.1 mg/ml BSA; 25 or 0 C; native 20% gel at 4-6 C; settings: protein: recombinant; tags: C-terminal SNAP tag; N-terminal 6xHis removed by TEV; label: none; single strand

B1: Puf4_HO RNA (ssRNA)
RNA: AUGUGUAUAUUAGU
How did the Kd (Puf4 RNA-binding domain [1]) turn out when B1 was run?
Its Kd is 0.00139 ± 9e-05 nM.

And the Kd (Puf4 RNA-binding domain [2])?
The Kd was 0.12 ± 0.03 nM.

What about the Kd (Puf4 RNA-binding domain [3]) of the same binder?
Its Kd is less than 0.0017 nM.

And the Kd (Puf4 RNA-binding domain [4])?
Its Kd is 0.12 ± 0.03 nM.

What about the Kd (Puf4 RNA-binding domain [5]) of the same binder?
Its Kd is 0.13 ± 0.03 nM.

And the Kd (Puf4 RNA-binding domain [6])?
Its Kd is 0.00102 ± 8e-05 nM.

And the Kd (Puf4 RNA-binding domain [7])?
The Kd was 0.105 nM.

B2: U1C mutant competitor RNA (ssRNA)
RNA: CGUAUAUUA
B2 was tested. Which Kd (Puf4 RNA-binding domain [8]) did it give?
The Kd was 180 nM.

What about the Kd (Puf4 RNA-binding domain [9]) of the same binder?
The Kd was 204 nM.
